In US20150197568A1:
Residue numbers refer to the chain shown, from its start. Blank lines part the entries; values can stand above or below the binder they belong to.

Target: Mature human IL-6 (human) (UniProt P05231)
Assay: cell-based or functional assay

Mature human IL-6 (human), sequence (P05231 30-212): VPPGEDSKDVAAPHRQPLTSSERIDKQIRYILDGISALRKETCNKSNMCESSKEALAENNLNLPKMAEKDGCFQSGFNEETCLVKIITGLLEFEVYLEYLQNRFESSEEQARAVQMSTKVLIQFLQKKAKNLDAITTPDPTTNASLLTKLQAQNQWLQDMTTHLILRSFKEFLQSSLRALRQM

IC50, TF-1 cell proliferation assay: 0.448 nM
B1: Antibody 14 scFv (scFv, part only; not given: scFv linker, part only)
scFv, part: EVQLVQSGGGLIQPGGSLRLSCAASGFTISSNYMIWVRQAPGKGLEWVSDLYYYAGDTYYADSVKGRFTMSRDISKNTVYLQMNSLRAEDTGVYYCARWADDHNYPHIDVWGRGTLVTVSSDIVMTQSPSTLSASVGDRVTITCRASQGISSWLAWYQQKPGRAPKVLIYKASTLESGVPSRFSGSGSGTDFTLTISSLQPEDFATYYCAAHYAAPWTFGQGTKLEIKR

IC50, TF-1 cell proliferation assay: 0.041 nM
B2: Antibody 22 scFv (scFv, part only; not given: scFv linker, part only)
scFv, part: B1 scFv, part with Y105N, P106T, H107Y

IC50, TF-1 cell proliferation assay: 0.419 nM
B3: Antibody 8 scFv (scFv, part only; not given: scFv linker, part only)
scFv, part: EVQLVQSGGGLIQPGGSLRLSCAASGFTISSNYMIWVRQAPGKGLEWVSDLYYYAGDTYYADSVKGRFTMSRDISKNTVYLQMNSLRAEDTGVYYCARWADDHPRYIDHWGRGTLVTVSSDIVMTQSPSTLSASVGDRVTITCRASQGISSWLAWYQQKPGRAPKVLIYKASTLESGVPSRFSGSGSGTDFTLTISSLQPEDFATYYCQQSWLGGSFGQGTKLEIKR

IC50, TF-1 cell proliferation assay: 0.042 nM
B4: Antibody 21 scFv (scFv, part only; not given: scFv linker, part only)
scFv, part: B3 scFv, part with R105S, Y106H, H109V

IC50, IL-6 induced TF-1 cell proliferation assay: 0.101 nM | IC50, TF-1 cell proliferation assay: 0.074 nM | IC50, endogenous IL-6 induced synovial fibroblast VEGF release assay: 1.31 nM
B5: CNTO-328 (antibody, INN chains, looked up, V domains shown)
VH: EVQLVESGGKLLKPGGSLKLSCAASGFTFSSFAMSWFRQSPEKRLEWVAEISSGGSYTYYPDTVTGRFTISRDNAKNTLYLEMSSLRSEDTAMYYCARGLWGYYALDYWGQGTSVTVSS
VL: QIVLIQSPAIMSASPGEKVTMTCSASSSVSYMYWYQQKPGSSPRLLIYDTSNLASGVPVRFSGSGSGTSYSLTISRMEAEDAATYYCQQWSGYPYTFGGGTKLEIK
